Measurements: the supplement of paper PMC7877785
± gives the uncertainty stated by the source.

Test: self-splicing fitness, log relative to wild type (ln ratio); higher = more splicing; Tetrahymena group I intron in knt gene, E. coli kanamycin selection, DiMSum; sequences stand for … in CUCUCU…GGAGGGAAAAGUUAUCAGGCAUGCACCUGGUAGCUAGUCUUUAAACCAAUAGAUUGCAUCGGUUUAAAAGGCAAGACCGUCAAAUUGCGGGAAAGGGGUCAACAGCCGUUCAGUACCAAGUCUCAGGGGAAACUUUGAGAUGGCCUUGCAAAGGGUAUGGUAAUAAGCUGACGGACAUGGUCCUAACCACGCAGCCAAGUCCUAAGUCAACAGAUCUUCUGUUGAUAUGGAUGCAGUUCACAGACUAAAUGUCGGUCGGGGAAGAUGUAUUCUUCUCAUAAGAUAUAGUCGGACCUCUCCUUAAUGGGAGCUAGCGGAUGAAGUGAUGCAACACUGGAGCCGCUGGGAACUAAUUUGUAUGCGAAAGUAUAUUGAUUAGUUUUGGAGUACUCGUGGUCG
Procedure, shortened: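 A randomised library covering all eight P1ex-region intron nucleotides was built with the intron in the knt kanamycin-resistance gene on pET-22b(+) and held in E. coli BL21(DE3). Cells were grown overnight at 37°C or 30°C on LB agar, with or without 25 μg/mL kanamycin, plus 100 μg/mL carbenicillin, 50 μM IPTG and 0.2% rhamnose, and pooled colonies were amplicon-sequenced on an Illumina HiSeq 2500. DiMSum fitness is the error-weighted combination of wild-type-normalised replicate fold changes, kanamycin versus none.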

Sequence	self-splicing fitness (ln) (30 °C)	self-splicing fitness (ln) (37 °C)
UUACAGCAAUAUUACGGUAC	-3.98 ± 0.22	-2.26 ± 0.14
UUACAGCAAUAUUACGGUAG	-1.92 ± 0.12	-0.729 ± 0.13
UUACAGCAAUAUUACGUAAA	-1.59 ± 0.13	-0.34 ± 0.12
UUACAGCAAUAUUACGUACG	-0.291 ± 0.075	0.0876 ± 0.1
UUACAGCAAUAUUACGUAUU	-2.89 ± 0.14	-1.55 ± 0.12
UUACAGCAAUAUUACGUUAU	-1.91 ± 0.087	-1.98 ± 0.14
UUAGAGCAAUAUUACGAACU	–	-1.92 ± 0.43
UUAGAGCAAUAUUACGACCU	-3.64 ± 0.41	-1.49 ± 0.43
UUAGAGCAAUAUUACGAGAA	-1.75 ± 0.17	-0.981 ± 0.21
UUAGAGCAAUAUUACGAGCC	-0.789 ± 0.47	–
UUAGAGCAAUAUUACGAGUG	-3.12 ± 0.16	-1.53 ± 0.13
UUAGAGCAAUAUUACGAUGU	-2.59 ± 0.41	-2.43 ± 0.41
UUAGAGCAAUAUUACGCCUU	-2.34 ± 0.13	-1.08 ± 0.16
UUAGAGCAAUAUUACGCGAA	-0.809 ± 0.14	-0.155 ± 0.18
UUAGAGCAAUAUUACGCGUC	-2.56 ± 0.29	–
UUAGAGCAAUAUUACGGAAC	-4.11 ± 0.39	-2.33 ± 0.37
UUAGAGCAAUAUUACGGAUU	-3.74 ± 0.28	-2.48 ± 0.27
UUAGAGCAAUAUUACGGCGG	-0.922 ± 0.14	0.0643 ± 0.2
UUAGAGCAAUAUUACGGGAC	-3.75 ± 0.36	-2.8 ± 0.22
UUAGAGCAAUAUUACGUGCU	–	-1.79 ± 0.4
UUAGAGCAAUAUUACGUGGU	-3.98 ± 0.43	-2.61 ± 0.39
UUAGAGCAAUAUUACGUUGU	-4.16 ± 0.31	-2.4 ± 0.19
UUAUAGCAAUAUUACGAAGA	–	-1.99 ± 0.32

Sequence	self-splicing fitness (ln) (30 °C)	self-splicing fitness (ln) (37 °C)
UUAUAGCAAUAUUACGACCA	-0.882 ± 0.2	-0.384 ± 0.21
UUAUAGCAAUAUUACGAGCU	–	-2.16 ± 0.26
UUAUAGCAAUAUUACGAUGG	-1.24 ± 0.1	-0.128 ± 0.14
UUAUAGCAAUAUUACGCAGC	-3.44 ± 0.31	-2.49 ± 0.45
UUAUAGCAAUAUUACGCAGG	-1.06 ± 0.13	-0.791 ± 0.16
UUAUAGCAAUAUUACGCCGG	-0.862 ± 0.19	-0.599 ± 0.32
UUAUAGCAAUAUUACGCCUG	-0.833 ± 0.4	-0.933 ± 0.37
UUAUAGCAAUAUUACGCGCG	0.0634 ± 0.16	-0.475 ± 0.18
UUAUAGCAAUAUUACGCGUC	–	-1.11 ± 0.41
UUAUAGCAAUAUUACGCUGU	-3.59 ± 0.37	-1.06 ± 0.37
UUAUAGCAAUAUUACGCUUA	-1.92 ± 0.33	-1.09 ± 0.26
UUAUAGCAAUAUUACGCUUU	-2.99 ± 0.28	-2.6 ± 0.26
UUAUAGCAAUAUUACGGACA	-1.66 ± 0.14	-0.61 ± 0.12
UUAUAGCAAUAUUACGGAUC	-3.02 ± 0.45	–
UUAUAGCAAUAUUACGGCAU	-2.47 ± 0.18	-2.3 ± 0.25
UUAUAGCAAUAUUACGGCGA	-1.38 ± 0.14	-0.219 ± 0.18
UUAUAGCAAUAUUACGGGCA	-2.37 ± 0.18	-1.32 ± 0.19
UUAUAGCAAUAUUACGGUAC	-2.88 ± 0.28	-2.45 ± 0.41
UUAUAGCAAUAUUACGGUAG	-1.38 ± 0.14	-0.483 ± 0.14
UUAUAGCAAUAUUACGGUCC	-2.8 ± 0.21	-2.93 ± 0.29
UUAUAGCAAUAUUACGUCAA	-1.61 ± 0.26	-0.961 ± 0.22
UUAUAGCAAUAUUACGUGUA	-2.46 ± 0.18	-1.73 ± 0.16
